From article PMC6350941 (Cell reports, 2019)
Read-outs that look alike come from different tables or passages of the source.

Columns and labels:
[1] = molecular target: chicken FANCD2 (His-tagged) (chicken, UniProt Q68Y81 1-1439); test: SEC
[2] = molecular target: T1, FANCI (human);FANCD2 (human) (human;human, UniProt Q9NVI1;Q9BXW9 1-1328;1-1451, |); test: EMSA
[3] = molecular target: FANCI (human) (human, UniProt Q9NVI1 1-1328); test: EMSA
[4] = molecular target: T2, FANCI (chicken) (chicken, UniProt B0I564 1-1338); test: EMSA
T2 sequence: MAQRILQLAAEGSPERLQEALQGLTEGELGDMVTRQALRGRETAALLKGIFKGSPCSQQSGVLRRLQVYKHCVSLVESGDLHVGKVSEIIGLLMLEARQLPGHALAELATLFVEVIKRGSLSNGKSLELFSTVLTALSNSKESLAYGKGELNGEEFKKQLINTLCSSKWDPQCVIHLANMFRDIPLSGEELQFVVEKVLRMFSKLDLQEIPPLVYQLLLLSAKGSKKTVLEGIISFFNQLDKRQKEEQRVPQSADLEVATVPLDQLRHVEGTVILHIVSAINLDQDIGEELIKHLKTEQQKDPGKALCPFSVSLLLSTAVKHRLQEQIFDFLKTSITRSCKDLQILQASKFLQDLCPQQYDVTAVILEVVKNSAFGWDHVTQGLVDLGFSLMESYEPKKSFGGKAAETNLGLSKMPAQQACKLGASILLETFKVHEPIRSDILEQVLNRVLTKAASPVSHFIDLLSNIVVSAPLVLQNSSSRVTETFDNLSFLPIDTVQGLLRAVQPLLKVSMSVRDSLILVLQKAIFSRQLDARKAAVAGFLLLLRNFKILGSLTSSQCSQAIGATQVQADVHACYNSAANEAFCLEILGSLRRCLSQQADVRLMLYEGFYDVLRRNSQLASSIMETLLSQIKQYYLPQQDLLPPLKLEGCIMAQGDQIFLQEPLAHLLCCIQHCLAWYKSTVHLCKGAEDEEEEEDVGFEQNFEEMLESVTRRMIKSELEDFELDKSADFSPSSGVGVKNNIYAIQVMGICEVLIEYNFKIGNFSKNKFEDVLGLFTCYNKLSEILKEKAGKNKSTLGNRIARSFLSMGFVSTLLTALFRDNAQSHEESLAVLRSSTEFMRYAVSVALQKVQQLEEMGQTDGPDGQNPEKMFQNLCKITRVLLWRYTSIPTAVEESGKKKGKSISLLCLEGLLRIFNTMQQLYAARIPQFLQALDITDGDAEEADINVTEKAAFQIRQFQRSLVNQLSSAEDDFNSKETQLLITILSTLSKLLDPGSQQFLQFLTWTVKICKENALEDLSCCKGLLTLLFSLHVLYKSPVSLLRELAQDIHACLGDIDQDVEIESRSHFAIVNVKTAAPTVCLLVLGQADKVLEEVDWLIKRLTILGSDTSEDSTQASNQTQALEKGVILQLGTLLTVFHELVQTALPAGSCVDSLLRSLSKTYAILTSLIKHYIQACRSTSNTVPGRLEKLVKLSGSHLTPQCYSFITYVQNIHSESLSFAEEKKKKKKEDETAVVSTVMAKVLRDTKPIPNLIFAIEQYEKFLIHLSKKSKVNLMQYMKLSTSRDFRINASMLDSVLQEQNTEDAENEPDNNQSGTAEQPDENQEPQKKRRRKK

[5] = molecular target: FANCD2 (chicken) (chicken, UniProt Q68Y81 1-1439); test: EMSA
[6] = molecular target: FANCI (chicken);FANCD2 (chicken) (chicken;chicken, UniProt B0I564;Q68Y81 1-1338;1-1439, |); test: EMSA
[7] = molecular target: T1, FANCI (human);FANCD2 (human); test: EMSA; remark: listed apart in the source
[8] = molecular target: T1, FANCI (human);FANCD2 (human); test: EMSA; remark: listed apart in the source
[9] = molecular target: T1, FANCI (human);FANCD2 (human); test: EMSA; remark: listed apart in the source
[10] = molecular target: T1, FANCI (human);FANCD2 (human); test: EMSA; remark: listed apart in the source

Sequence of FANCI (chicken);FANCD2 (chicken) (Q68Y81 whole entry, one chain of several): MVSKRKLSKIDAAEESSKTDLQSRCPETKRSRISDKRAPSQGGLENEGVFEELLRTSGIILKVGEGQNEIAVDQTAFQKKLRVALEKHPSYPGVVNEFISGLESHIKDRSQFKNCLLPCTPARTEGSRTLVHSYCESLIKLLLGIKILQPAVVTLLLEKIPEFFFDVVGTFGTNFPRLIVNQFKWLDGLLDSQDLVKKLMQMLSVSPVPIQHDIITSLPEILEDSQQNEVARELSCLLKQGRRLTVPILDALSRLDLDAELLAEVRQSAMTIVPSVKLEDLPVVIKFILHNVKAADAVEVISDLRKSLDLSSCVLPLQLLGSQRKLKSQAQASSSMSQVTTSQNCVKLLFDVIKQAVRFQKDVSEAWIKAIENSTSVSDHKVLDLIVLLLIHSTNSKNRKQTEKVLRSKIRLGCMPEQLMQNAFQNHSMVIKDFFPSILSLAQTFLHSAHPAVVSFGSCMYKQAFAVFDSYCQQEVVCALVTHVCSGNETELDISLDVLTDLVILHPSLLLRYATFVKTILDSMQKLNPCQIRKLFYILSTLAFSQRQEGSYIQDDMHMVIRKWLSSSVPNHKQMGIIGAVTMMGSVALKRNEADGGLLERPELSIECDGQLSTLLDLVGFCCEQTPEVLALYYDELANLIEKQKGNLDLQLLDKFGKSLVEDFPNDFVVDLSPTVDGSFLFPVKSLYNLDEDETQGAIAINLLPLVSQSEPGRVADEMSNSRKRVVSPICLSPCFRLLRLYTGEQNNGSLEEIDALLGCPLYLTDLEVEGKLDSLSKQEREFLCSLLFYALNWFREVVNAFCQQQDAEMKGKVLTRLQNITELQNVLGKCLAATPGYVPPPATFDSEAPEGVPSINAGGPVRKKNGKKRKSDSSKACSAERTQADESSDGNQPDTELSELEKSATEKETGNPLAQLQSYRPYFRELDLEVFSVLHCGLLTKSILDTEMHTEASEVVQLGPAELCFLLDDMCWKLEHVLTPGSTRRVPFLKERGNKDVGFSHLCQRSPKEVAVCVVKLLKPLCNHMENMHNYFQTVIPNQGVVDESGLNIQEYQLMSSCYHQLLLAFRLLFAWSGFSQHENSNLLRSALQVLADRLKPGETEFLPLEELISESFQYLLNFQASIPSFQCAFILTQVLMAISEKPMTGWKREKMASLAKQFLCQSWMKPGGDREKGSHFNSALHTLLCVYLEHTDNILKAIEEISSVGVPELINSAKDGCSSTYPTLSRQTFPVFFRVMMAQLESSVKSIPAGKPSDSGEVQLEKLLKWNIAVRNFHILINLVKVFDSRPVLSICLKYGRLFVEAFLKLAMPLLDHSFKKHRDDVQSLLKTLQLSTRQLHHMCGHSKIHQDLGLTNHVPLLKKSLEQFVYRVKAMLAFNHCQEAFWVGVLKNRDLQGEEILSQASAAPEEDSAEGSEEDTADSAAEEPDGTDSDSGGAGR
Sequence of FANCD2 (chicken) (Q68Y81 whole entry): as the sequence (Q68Y81 whole entry, one chain of several) above
Sequence of FANCI (human) (Q9NVI1 whole entry): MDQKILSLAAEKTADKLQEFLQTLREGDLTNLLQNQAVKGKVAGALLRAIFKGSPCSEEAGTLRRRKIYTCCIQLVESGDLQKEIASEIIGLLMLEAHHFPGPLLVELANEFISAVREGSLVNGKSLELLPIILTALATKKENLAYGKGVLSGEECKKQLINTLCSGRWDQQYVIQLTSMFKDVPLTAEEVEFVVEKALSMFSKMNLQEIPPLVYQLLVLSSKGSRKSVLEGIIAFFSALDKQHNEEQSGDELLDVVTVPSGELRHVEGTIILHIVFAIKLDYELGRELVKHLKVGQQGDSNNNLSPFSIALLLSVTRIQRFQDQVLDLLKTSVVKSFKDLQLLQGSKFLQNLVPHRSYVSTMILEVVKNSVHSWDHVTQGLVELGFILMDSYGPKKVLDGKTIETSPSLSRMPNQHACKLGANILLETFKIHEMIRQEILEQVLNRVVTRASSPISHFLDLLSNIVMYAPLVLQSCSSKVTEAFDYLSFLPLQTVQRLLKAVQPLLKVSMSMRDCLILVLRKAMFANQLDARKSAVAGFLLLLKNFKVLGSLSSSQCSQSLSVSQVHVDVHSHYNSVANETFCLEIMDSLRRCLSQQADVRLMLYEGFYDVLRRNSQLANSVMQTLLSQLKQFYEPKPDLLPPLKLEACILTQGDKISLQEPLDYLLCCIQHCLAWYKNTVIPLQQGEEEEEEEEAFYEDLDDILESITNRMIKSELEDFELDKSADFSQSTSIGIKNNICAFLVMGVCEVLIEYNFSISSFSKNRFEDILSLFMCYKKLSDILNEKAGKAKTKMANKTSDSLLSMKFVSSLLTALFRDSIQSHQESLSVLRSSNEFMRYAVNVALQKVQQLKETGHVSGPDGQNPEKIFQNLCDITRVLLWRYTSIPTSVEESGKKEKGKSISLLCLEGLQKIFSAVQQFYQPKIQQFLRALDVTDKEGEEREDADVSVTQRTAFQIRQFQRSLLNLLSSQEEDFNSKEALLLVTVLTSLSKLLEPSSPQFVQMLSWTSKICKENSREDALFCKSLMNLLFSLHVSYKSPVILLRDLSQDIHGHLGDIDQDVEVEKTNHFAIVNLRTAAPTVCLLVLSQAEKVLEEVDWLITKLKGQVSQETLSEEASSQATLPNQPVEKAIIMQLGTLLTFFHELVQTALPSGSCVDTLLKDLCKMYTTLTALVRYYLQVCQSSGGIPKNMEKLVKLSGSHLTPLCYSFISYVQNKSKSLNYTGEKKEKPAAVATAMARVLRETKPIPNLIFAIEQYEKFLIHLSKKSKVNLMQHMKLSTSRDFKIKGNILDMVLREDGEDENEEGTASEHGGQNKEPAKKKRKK
T1 sequence (Q9NVI1 whole entry, chain 1 of 2): as the sequence (Q9NVI1 whole entry) above
T1 sequence (Q9BXW9 whole entry, chain 2 of 2): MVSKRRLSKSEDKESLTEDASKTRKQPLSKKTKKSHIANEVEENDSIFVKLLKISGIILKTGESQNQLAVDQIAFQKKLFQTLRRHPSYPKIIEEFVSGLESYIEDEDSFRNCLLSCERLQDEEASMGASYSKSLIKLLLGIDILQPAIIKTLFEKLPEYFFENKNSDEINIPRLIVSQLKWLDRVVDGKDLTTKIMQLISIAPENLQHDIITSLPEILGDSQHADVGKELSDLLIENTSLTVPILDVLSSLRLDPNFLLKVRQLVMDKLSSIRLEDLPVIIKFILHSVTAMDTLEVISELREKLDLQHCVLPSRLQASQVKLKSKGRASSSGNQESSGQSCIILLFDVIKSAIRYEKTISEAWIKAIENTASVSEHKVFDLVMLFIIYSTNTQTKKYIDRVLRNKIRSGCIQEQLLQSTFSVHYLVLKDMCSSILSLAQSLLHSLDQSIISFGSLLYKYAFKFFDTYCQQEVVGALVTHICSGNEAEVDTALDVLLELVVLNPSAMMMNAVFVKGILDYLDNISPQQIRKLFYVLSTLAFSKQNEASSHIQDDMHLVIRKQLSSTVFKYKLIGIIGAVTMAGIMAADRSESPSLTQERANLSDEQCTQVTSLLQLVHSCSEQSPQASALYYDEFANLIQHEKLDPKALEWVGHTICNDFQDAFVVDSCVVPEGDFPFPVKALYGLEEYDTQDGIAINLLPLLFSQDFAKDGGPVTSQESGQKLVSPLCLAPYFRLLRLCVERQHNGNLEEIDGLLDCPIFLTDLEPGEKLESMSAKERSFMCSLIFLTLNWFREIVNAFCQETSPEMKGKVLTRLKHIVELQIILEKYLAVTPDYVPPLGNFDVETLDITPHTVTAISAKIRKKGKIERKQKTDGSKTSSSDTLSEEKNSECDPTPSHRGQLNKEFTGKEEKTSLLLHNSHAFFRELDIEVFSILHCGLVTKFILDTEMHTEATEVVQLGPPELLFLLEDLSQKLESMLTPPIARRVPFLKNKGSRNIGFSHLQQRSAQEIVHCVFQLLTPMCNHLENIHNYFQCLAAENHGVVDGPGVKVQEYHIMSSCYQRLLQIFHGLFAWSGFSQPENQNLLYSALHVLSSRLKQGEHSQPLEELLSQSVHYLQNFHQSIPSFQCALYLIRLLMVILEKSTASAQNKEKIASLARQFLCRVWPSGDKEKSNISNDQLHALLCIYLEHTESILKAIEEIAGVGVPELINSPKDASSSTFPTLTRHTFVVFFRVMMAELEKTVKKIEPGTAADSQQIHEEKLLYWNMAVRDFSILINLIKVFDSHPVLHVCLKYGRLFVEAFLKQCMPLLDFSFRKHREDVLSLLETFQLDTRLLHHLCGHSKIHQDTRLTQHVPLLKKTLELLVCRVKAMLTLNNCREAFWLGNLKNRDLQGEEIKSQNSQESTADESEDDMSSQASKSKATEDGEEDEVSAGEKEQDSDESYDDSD
Sequence of chicken FANCD2 (His-tagged) (Q68Y81 whole entry): as the sequence (Q68Y81 whole entry, one chain of several) above

B1: chicken FANCI (His-tagged) (natural protein, UniProt B0I564 1-1338, looked up)
chain: MAQRILQLAAEGSPERLQEALQGLTEGELGDMVTRQALRGRETAALLKGIFKGSPCSQQSGVLRRLQVYKHCVSLVESGDLHVGKVSEIIGLLMLEARQLPGHALAELATLFVEVIKRGSLSNGKSLELFSTVLTALSNSKESLAYGKGELNGEEFKKQLINTLCSSKWDPQCVIHLANMFRDIPLSGEELQFVVEKVLRMFSKLDLQEIPPLVYQLLLLSAKGSKKTVLEGIISFFNQLDKRQKEEQRVPQSADLEVATVPLDQLRHVEGTVILHIVSAINLDQDIGEELIKHLKTEQQKDPGKALCPFSVSLLLSTAVKHRLQEQIFDFLKTSITRSCKDLQILQASKFLQDLCPQQYDVTAVILEVVKNSAFGWDHVTQGLVDLGFSLMESYEPKKSFGGKAAETNLGLSKMPAQQACKLGASILLETFKVHEPIRSDILEQVLNRVLTKAASPVSHFIDLLSNIVVSAPLVLQNSSSRVTETFDNLSFLPIDTVQGLLRAVQPLLKVSMSVRDSLILVLQKAIFSRQLDARKAAVAGFLLLLRNFKILGSLTSSQCSQAIGATQVQADVHACYNSAANEAFCLEILGSLRRCLSQQADVRLMLYEGFYDVLRRNSQLASSIMETLLSQIKQYYLPQQDLLPPLKLEGCIMAQGDQIFLQEPLAHLLCCIQHCLAWYKSTVHLCKGAEDEEEEEDVGFEQNFEEMLESVTRRMIKSELEDFELDKSADFSPSSGVGVKNNIYAIQVMGICEVLIEYNFKIGNFSKNKFEDVLGLFTCYNKLSEILKEKAGKNKSTLGNRIARSFLSMGFVSTLLTALFRDNAQSHEESLAVLRSSTEFMRYAVSVALQKVQQLEEMGQTDGPDGQNPEKMFQNLCKITRVLLWRYTSIPTAVEESGKKKGKSISLLCLEGLLRIFNTMQQLYAARIPQFLQALDITDGDAEEADINVTEKAAFQIRQFQRSLVNQLSSAEDDFNSKETQLLITILSTLSKLLDPGSQQFLQFLTWTVKICKENALEDLSCCKGLLTLLFSLHVLYKSPVSLLRELAQDIHACLGDIDQDVEIESRSHFAIVNVKTAAPTVCLLVLGQADKVLEEVDWLIKRLTILGSDTSEDSTQASNQTQALEKGVILQLGTLLTVFHELVQTALPAGSCVDSLLRSLSKTYAILTSLIKHYIQACRSTSNTVPGRLEKLVKLSGSHLTPQCYSFITYVQNIHSESLSFAEEKKKKKKEDETAVVSTVMAKVLRDTKPIPNLIFAIEQYEKFLIHLSKKSKVNLMQYMKLSTSRDFRINASMLDSVLQEQNTEDAENEPDNNQSGTAEQPDENQEPQKKRRRKK
B1: binds [1].

B2: ssDNA / ssDNA(G28) (ssDNA)
DNA: TGATAAGAGGTCATTTGAATTCATGGCTTAGAGCTTAATTGCTGAATCTGGTGCTGGGAT
B2: binds [2].

B3: dsDNA / dsDNA(G28) (dsDNA)
DNA 1: TGATAAGAGGTCATTTGAATTCATGGCTTAGAGCTTAATTGCTGAATCTGGTGCTGGGAT
DNA 2: ATCCCAGCACCAGATTCAGCAATTAAGCTCTAAGCCATGAATTCAAATGACCTCTTATCA
B3: binds [2].

B4: RNA:DNA hybrid (DNA:RNA)
DNA: TGATAAGAGGTCATTTGAATTCATGGCTTAGAGCTTAATTGCTGAATCTGGTGCTGGGAT
RNA: AUCCCAGCACCAGAUUCAGCAAUUAAGCUCUAAGCCAUGAAUUCAAAUGACCUCUUAUCA
B4: binds [3]; binds [4]; binds [5]. B4: binds [6].

B5: ssRNA / ssRNA(G28) (ssRNA)
RNA: UGAUAAGAGGUCAUUUGAAUUCAUGGCUUAGAGCUUAAUUGCUGAAUCUGGUGCUGGGAU
B5: binds [3]; binds [2]; binds [4]. B5: binds [5]; binds [6].

B6: dsRNA / dsRNA(G28) (dsRNA)
RNA 1: UGAUAAGAGGUCAUUUGAAUUCAUGGCUUAGAGCUUAAUUGCUGAAUCUGGUGCUGGGAU
RNA 2: AUCCCAGCACCAGAUUCAGCAAUUAAGCUCUAAGCCAUGAAUUCAAAUGACCUCUUAUCA
B6: binds [3]; binds [4]; binds [5]. B6: binds [6].

B7: R-loop(G45) = R-loop(GGC) (mixed)
DNA 1: CATTGCATATTTAAAACATGTTGGAGTGAGTGCGTGGCTGAGATCGGGATTGCTGAGTCTGGTGCTTCAAATGACCTCTTATCAAGTGAC
RNA: CGUGGUCUGAGUCGUUAGGGCUAGAGUCGGUGCGUGAGUG
DNA 2: GTCACTTGATAAGAGGTCATTTGAACACTCACGCACCGACTCTAGCCCTAACGACTCAGACCACGTCCAACATGTTTTAAATATGCAATG
B7: binds [7].

B8: R-loop(G30_G-quad) (mixed)
DNA 1: CATTGCATATTTAAAACATGTTGGATTTAATTCAGGGCTTAGGGCTTGGGTACTGGGTCTAATACTTCAAATGACCTCTTATCAAGTGAC
RNA: CGUGGUCUGAGUCGUUAGGGCUAGAGUCGGUGCGUGAGUG
DNA 2: GTCACTTGATAAGAGGTCATTTGAACACTCACGCACCGACTCTAGCCCTAACGACTCAGACCACGTCCAACATGTTTTAAATATGCAATG
B8: binds [8].

B9: D-loop(GGC) (structured_DNA)
DNA 1: CATTGCATATTTAAAACATGTTGGAGTGAGTGCGTGGCTGAGATCGGGATTGCTGAGTCTGGTGCTTCAAATGACCTCTTATCAAGTGAC
DNA 2: CGTGGTCTGAGTCGTTAGGGCTAGAGTCGGTGCGTGAGTG
DNA 3: GTCACTTGATAAGAGGTCATTTGAACACTCACGCACCGACTCTAGCCCTAACGACTCAGACCACGTCCAACATGTTTTAAATATGCAATG
B9: binds [9].

B10: R-loop(GAT) (mixed)
DNA 1: CATTGCATATTTAAAACATGTTGGAGTGAGTGCGTGGCTGAGATCGGGATTGCTGAGTCTGGTGCTTCAAATGACCTCTTATCAAGTGAC
RNA: AAAAAAAUAAAAAAAUAAAAAAAAUAAAAAAAUAAAAAAA
DNA 2: GTCACTTGATAAGAGGTCATTTGAATTTTTTTATTTTTTTATTTTTTTTATTTTTTTATTTTTTTTCCAACATGTTTTAAATATGCAATG
B10: binds [10].

B11: ssDNA(G48) (ssDNA)
DNA: GGATGAGAGGGCATGTGAGTGCGTGGCTGAGAGCGGGATTGCTGAGTCTGGTGCTGGGAT
B11: binds [2].

B12: ssRNA(G48) (ssRNA)
RNA: GGAUGAGAGGGCAUGUGAGUGCGUGGCUGAGAGCGGGAUUGCUGAGUCUGGUGCUGGGAU
B12: binds [2].
